Tested on: Escherichia coli TOP10
Assay: shrunken log2 fold change of peptide-encoding DNA abundance (4.5 h post-induction vs induction); higher = less antimicrobial activity (less host growth inhibition)
Settings: time post-induction: 4.5 h; library: site-saturation at positions 5, 18, 19, 20
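Further: peptides expressed intracellularly from a pBAD plasmid library in pooled LB shake-flask culture, induced with 0.3% L-arabinose, DNA abundance read by NGS, three biological replicates, DESeq2 with apeglm shrinkage.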

| Sequence | shrunken log2 fold change |
| --- | --- |
| RRIRVRPPRLPRPRPRPTYCPRP | -0.327 |
| RRIRVRPPRLPRPRPRPVEIPRP | -0.0612 |
| RRIRVRPPRLPRPRPRPVEQPRP | -0.0734 |
| RRIRVRPPRLPRPRPRPVFHPRP | -0.213 |
| RRIRVRPPRLPRPRPRPVFIPRP | -0.144 |
| RRIRVRPPRLPRPRPRPVGEPRP | 0.305 |
| RRIRVRPPRLPRPRPRPVGTPRP | -0.0358 |
| RRIRVRPPRLPRPRPRPVGYPRP | -0.0725 |
| RRIRVRPPRLPRPRPRPVHIPRP | -0.174 |
| RRIRVRPPRLPRPRPRPVKHPRP | -0.3 |
| RRIRVRPPRLPRPRPRPVKIPRP | -0.29 |
| RRIRVRPPRLPRPRPRPVLCPRP | 0.0228 |
| RRIRVRPPRLPRPRPRPVLGPRP | 0.299 |
| RRIRVRPPRLPRPRPRPVLVPRP | -0.311 |
| RRIRVRPPRLPRPRPRPVMRPRP | 0.269 |
| RRIRVRPPRLPRPRPRPVPFPRP | -0.115 |
| RRIRVRPPRLPRPRPRPVQCPRP | -0.0156 |
| RRIRVRPPRLPRPRPRPVQYPRP | -0.0224 |
| RRIRVRPPRLPRPRPRPVSTPRP | -0.145 |
| RRIRVRPPRLPRPRPRPVVTPRP | 0.0368 |
| RRIRVRPPRLPRPRPRPVWQPRP | 0.148 |
| RRIRVRPPRLPRPRPRPVYIPRP | -0.363 |

| Sequence | shrunken log2 fold change |
| --- | --- |
| RRIRVRPPRLPRPRPRPVYPPRP | -0.389 |
| RRIRVRPPRLPRPRPRPWASPRP | 0.0586 |
| RRIRVRPPRLPRPRPRPWCFPRP | -0.0951 |
| RRIRVRPPRLPRPRPRPWCMPRP | -0.468 |
| RRIRVRPPRLPRPRPRPWDLPRP | 0.146 |
| RRIRVRPPRLPRPRPRPWECPRP | -0.00141 |
| RRIRVRPPRLPRPRPRPWEPPRP | 0.13 |
| RRIRVRPPRLPRPRPRPWGEPRP | 0.136 |
| RRIRVRPPRLPRPRPRPWGGPRP | 0.307 |
| RRIRVRPPRLPRPRPRPWGLPRP | -0.159 |
| RRIRVRPPRLPRPRPRPWHTPRP | -0.33 |
| RRIRVRPPRLPRPRPRPWIIPRP | -0.652 |
| RRIRVRPPRLPRPRPRPWKCPRP | -0.173 |
| RRIRVRPPRLPRPRPRPWLHPRP | 0.215 |
| RRIRVRPPRLPRPRPRPWMHPRP | -0.406 |
| RRIRVRPPRLPRPRPRPWMQPRP | -0.106 |
| RRIRVRPPRLPRPRPRPWPRPRP | 0.183 |
| RRIRVRPPRLPRPRPRPWPVPRP | 0.197 |
| RRIRVRPPRLPRPRPRPWQQPRP | -0.097 |
| RRIRVRPPRLPRPRPRPWRNPRP | 0.065 |
| RRIRVRPPRLPRPRPRPWSVPRP | -0.0304 |
| RRIRVRPPRLPRPRPRPWTFPRP | -0.0163 |

| Sequence | shrunken log2 fold change |
| --- | --- |
| RRIRVRPPRLPRPRPRPWYTPRP | -0.507 |
| RRIRVRPPRLPRPRPRPYAHPRP | -0.38 |
| RRIRVRPPRLPRPRPRPYAMPRP | -0.11 |
| RRIRVRPPRLPRPRPRPYANPRP | 0.0231 |
| RRIRVRPPRLPRPRPRPYDCPRP | -0.9 |
| RRIRVRPPRLPRPRPRPYDNPRP | -0.199 |
| RRIRVRPPRLPRPRPRPYECPRP | -1.34 |
| RRIRVRPPRLPRPRPRPYEMPRP | -0.311 |
| RRIRVRPPRLPRPRPRPYFVPRP | 0.263 |
| RRIRVRPPRLPRPRPRPYHHPRP | -0.0938 |
| RRIRVRPPRLPRPRPRPYIGPRP | -0.661 |
| RRIRVRPPRLPRPRPRPYIMPRP | -0.937 |
| RRIRVRPPRLPRPRPRPYKVPRP | -0.0222 |
| RRIRVRPPRLPRPRPRPYLHPRP | -0.879 |
| RRIRVRPPRLPRPRPRPYNRPRP | -0.0579 |
| RRIRVRPPRLPRPRPRPYPFPRP | -0.863 |
| RRIRVRPPRLPRPRPRPYPPPRP | -0.103 |
| RRIRVRPPRLPRPRPRPYPQPRP | -0.349 |
| RRIRVRPPRLPRPRPRPYQPPRP | -0.509 |
| RRIRVRPPRLPRPRPRPYREPRP | -0.3 |
| RRIRVRPPRLPRPRPRPYTEPRP | -0.42 |
| RRIRVRPPRLPRPRPRPYTMPRP | -0.49 |

| Sequence | shrunken log2 fold change |
| --- | --- |
| RRIRVRPPRLPRPRPRPYVSPRP | -0.084 |
| RRIRVRPPRLPRPRPRPYWEPRP | -0.508 |
| RRIRWRPPRLPRPRPRPAEQPRP | -0.00651 |
| RRIRWRPPRLPRPRPRPAGGPRP | 0.379 |
| RRIRWRPPRLPRPRPRPAHPPRP | 0.304 |
| RRIRWRPPRLPRPRPRPAKDPRP | 0.0218 |
| RRIRWRPPRLPRPRPRPAKIPRP | 0.132 |
| RRIRWRPPRLPRPRPRPAKYPRP | -0.183 |
| RRIRWRPPRLPRPRPRPALVPRP | 0.98 |
| RRIRWRPPRLPRPRPRPAMEPRP | 0.348 |
| RRIRWRPPRLPRPRPRPANCPRP | 0.0179 |
| RRIRWRPPRLPRPRPRPAPDPRP | 1.14 |
| RRIRWRPPRLPRPRPRPAPEPRP | 0.603 |
| RRIRWRPPRLPRPRPRPAQLPRP | 1.63 |
| RRIRWRPPRLPRPRPRPAQYPRP | 0.122 |
| RRIRWRPPRLPRPRPRPARQPRP | 0.0282 |
| RRIRWRPPRLPRPRPRPATIPRP | -0.0366 |
| RRIRWRPPRLPRPRPRPATLPRP | -0.0879 |
| RRIRWRPPRLPRPRPRPAVDPRP | 0.174 |
| RRIRWRPPRLPRPRPRPAYLPRP | -0.108 |
| RRIRWRPPRLPRPRPRPAYYPRP | -0.157 |
| RRIRWRPPRLPRPRPRPCAGPRP | 0.0556 |

| Sequence | shrunken log2 fold change |
| --- | --- |
| RRIRWRPPRLPRPRPRPCCKPRP | 0.0725 |
| RRIRWRPPRLPRPRPRPCDIPRP | -0.143 |
| RRIRWRPPRLPRPRPRPCDRPRP | -0.0349 |
| RRIRWRPPRLPRPRPRPCDVPRP | -0.00226 |
| RRIRWRPPRLPRPRPRPCECPRP | -0.151 |
| RRIRWRPPRLPRPRPRPCEHPRP | 0.0123 |
| RRIRWRPPRLPRPRPRPCEPPRP | -0.27 |
| RRIRWRPPRLPRPRPRPCEQPRP | 0.263 |
| RRIRWRPPRLPRPRPRPCFIPRP | -0.423 |
| RRIRWRPPRLPRPRPRPCGFPRP | 0.395 |
| RRIRWRPPRLPRPRPRPCGMPRP | 0.259 |
| RRIRWRPPRLPRPRPRPCGVPRP | 0.0164 |
| RRIRWRPPRLPRPRPRPCIGPRP | -0.148 |
| RRIRWRPPRLPRPRPRPCIIPRP | -0.222 |
| RRIRWRPPRLPRPRPRPCKAPRP | -0.0863 |
| RRIRWRPPRLPRPRPRPCKFPRP | -0.24 |
| RRIRWRPPRLPRPRPRPCNCPRP | -0.289 |
| RRIRWRPPRLPRPRPRPCNMPRP | -0.179 |
| RRIRWRPPRLPRPRPRPCNNPRP | 0.00194 |
| RRIRWRPPRLPRPRPRPCNVPRP | -0.00213 |
| RRIRWRPPRLPRPRPRPCPCPRP | -0.273 |
